Substrate in the data set: CN(CCCC(C[C@@H]1O[C@H](C(=O)O)[C@@H](O)[C@H](O)[C@H]1O)c1cccnc1)N=O
Put plainly: TP_TRANSPORTER: uptake, in the presence of GSH in membrane vesicle from MRP1-expressing T5 HeLa cell. Format: functional, cell membranes.

B1: Multidrug resistance-associated protein 1 (Homo sapiens) (protein)
chain: MALRGFCSADGSDPLWDWNVTWNTSNPDFTKCFQNTVLVWVPCFYLWACFPFYFLYLSRHDRGYIQMTPLNKTKTALGFLLWIVCWADLFYSFWERSRGIFLAPVFLVSPTLLGITMLLATFLIQLERRKGVQSSGIMLTFWLVALVCALAILRSKIMTALKEDAQVDLFRDITFYVYFSLLLIQLVLSCFSDRSPLFSETIHDPNPCPESSASFLSRITFWWITGLIVRGYRQPLEGSDLWSLNKEDTSEQVVPVLVKNWKKECAKTRKQPVKVVYSSKDPAQPKESSKVDANEEVEALIVKSPQKEWNPSLFKVLYKTFGPYFLMSFFFKAIHDLMMFSGPQILKLLIKFVNDTKAPDWQGYFYTVLLFVTACLQTLVLHQYFHICFVSGMRIKTAVIGAVYRKALVITNSARKSSTVGEIVNLMSVDAQRFMDLATYINMIWSAPLQVILALYLLWLNLGPSVLAGVAVMVLMVPVNAVMAMKTKTYQVAHMKSKDNRIKLMNEILNGIKVLKLYAWELAFKDKVLAIRQEELKVLKKSAYLSAVGTFTWVCTPFLVALCTFAVYVTIDENNILDAQTAFVSLALFNILRFPLNILPMVISSIVQASVSLKRLRIFLSHEELEPDSIERRPVKDGGGTNSITVRNATFTWARSDPPTLNGITFSIPEGALVAVVGQVGCGKSSLLSALLAEMDKVEGHVAIKGSVAYVPQQAWIQNDSLRENILFGCQLEEPYYRSVIQACALLPDLEILPSGDRTEIGEKGVNLSGGQKQRVSLARAVYSNADIYLFDDPLSAVDAHVGKHIFENVIGPKGMLKNKTRILVTHSMSYLPQVDVIIVMSGGKISEMGSYQELLARDGAFAEFLRTYASTEQEQDAEENGVTGVSGPGKEAKQMENGMLVTDSAGKQLQRQLSSSSSYSGDISRHHNSTAELQKAEAKKEETWKLMEADKAQTGQVKLSVYWDYMKAIGLFISFLSIFLFMCNHVSALASNYWLSLWTDDPIVNGTQEHTKVRLSVYGALGISQGIAVFGYSMAVSIGGILASRCLHVDLLHSILRSPMSFFERTPSGNLVNRFSKELDTVDSMIPEVIKMFMGSLFNVIGACIVILLATPIAAIIIPPLGLIYFFVQRFYVASSRQLKRLESVSRSPVYSHFNETLLGVSVIRAFEEQERFIHQSDLKVDENQKAYYPSIVANRWLAVRLECVGNCIVLFAALFAVISRHSLSAGLVGLSVSYSLQVTTYLNWLVRMSSEMETNIVAVERLKEYSETEKEAPWQIQETAPPSSWPQVGRVEFRNYCLRYREDLDFVLRHINVTINGGEKVGIVGRTGAGKSSLTLGLFRINESAEGEIIIDGINIAKIGLHDLRFKITIIPQDPVLFSGSLRMNLDPFSQYSDEEVWTSLELAHLKDFVSALPDKLDHECAEGGENLSVGQRQLVCLARALLRKTKILVLDEATAAVDLETDDLIQSTIRTQFEDCTVLTIAHRLNTIMDYTRVIVLDKGEIQEYGAPSDLLQQRGLFYSMAKDAGLV
For orientation: Km means the concentration of substrate that gives half-maximal velocity. For the protein B1, the Km was 39 µM.

(Values after ChEMBL document CHEMBL2073804, “Transport of the beta -O-glucuronide conjugate of the tobacco-specific carcinogen 4-(methylnitrosamino)-1-(3-pyridyl)-1-butanol (NNAL) by the multidrug resistance protein 1 (MRP1). Requirement for glutathione or a non-sulfur-containing analog” (J Biol Chem, 2001).)
